The results in this text go back to PMC2646663 (Biochemistry, 2008).

The target of data set [1] is T1, Formylglycinamide ribonucleotide amidotransferase (small PurL) from Thermotoga maritima (Thermotoga maritima, UniProt Q9X0X3 1-603).
T1 sequence: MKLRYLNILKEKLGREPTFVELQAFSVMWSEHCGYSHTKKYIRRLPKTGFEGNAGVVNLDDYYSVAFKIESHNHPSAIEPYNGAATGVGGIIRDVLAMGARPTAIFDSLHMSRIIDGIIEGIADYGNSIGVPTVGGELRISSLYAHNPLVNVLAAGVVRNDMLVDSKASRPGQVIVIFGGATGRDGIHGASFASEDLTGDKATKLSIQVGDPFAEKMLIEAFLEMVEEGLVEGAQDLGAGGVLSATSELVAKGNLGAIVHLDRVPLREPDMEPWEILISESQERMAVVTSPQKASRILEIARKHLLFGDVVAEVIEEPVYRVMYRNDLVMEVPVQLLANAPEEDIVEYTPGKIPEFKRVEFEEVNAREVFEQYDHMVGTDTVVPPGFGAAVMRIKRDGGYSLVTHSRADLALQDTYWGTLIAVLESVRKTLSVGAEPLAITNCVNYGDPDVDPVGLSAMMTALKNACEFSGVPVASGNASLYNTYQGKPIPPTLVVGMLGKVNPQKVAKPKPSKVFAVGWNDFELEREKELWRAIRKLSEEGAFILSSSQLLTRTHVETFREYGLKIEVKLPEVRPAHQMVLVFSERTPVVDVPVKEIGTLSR
As to the kind of experiment: crystal structure.

The data set “crystal structure” concerns the molecule itself. As to the kind of experiment: crystal structure.

B1: PurQ (glutaminase subunit of FGAR amidotransferase) from Thermotoga maritima (enzyme)
chain: MKPRACVVVYPGSNCDRDAYHALEINGFEPSYVGLDDKLDDYELIILPGGFSYGDYLRPGAVAAREKIAFEIAKAAERGKLIMGICNGFQILIEMGLLKGALLQNSSGKFICKWVDLIVENNDTPFTNAFEKGEKIRIPIAHGFGRYVKIDDVNVVLRYVKDVNGSDERIAGVLNESGNVFGLMPHPERAVEELIGGEDGKKVFQSILNYLKR
modifications: glutamyl thioester intermediate covalently linked to Cys86 (seen in the crystal structure)
For the molecule B1, the “stoichiometry N” value in data set [1] came out at 1 TmPurQ per TmPurL.

B2: PurS from Thermotoga maritima (natural protein)
chain: MPLFKFAIDVQYRSNVRDPRGETIERVLREEKGLPVKKLRLGKSIHLEVEAENKEKAYEIVKKACEELLVNPVVEEYEVREL
As for B2, the “stoichiometry N” value was 2 in “crystal structure” and 2 TmPurS per TmPurL in data set [1].

As a reminder, the stoichiometry N is a count of units in the complex or per binding partner.
